The record followed here is paper PMC8660895, “Hedgehog-Interacting Protein is a multimodal antagonist of Hedgehog signalling” (Nature Communications, 2021).

Values joined by “and” are separate entries in the source; they are usually repeats but may differ in a detail not shown here. Equal entries are not always repeated.

Data set [1] has as its target T1, HHIP-C (Homo sapiens, UniProt Q96QV1).
T1 construct: C-terminal domain (beta-propeller + 2 EGF repeats), residues 213-670, C-terminal His6 tag, HEK293T with kifunensine; EndoF1-deglycosylated for crystals; mostly monomer without GAG, anti-parallel dimer in crystal
T1 sequence (Q96QV1 213-670): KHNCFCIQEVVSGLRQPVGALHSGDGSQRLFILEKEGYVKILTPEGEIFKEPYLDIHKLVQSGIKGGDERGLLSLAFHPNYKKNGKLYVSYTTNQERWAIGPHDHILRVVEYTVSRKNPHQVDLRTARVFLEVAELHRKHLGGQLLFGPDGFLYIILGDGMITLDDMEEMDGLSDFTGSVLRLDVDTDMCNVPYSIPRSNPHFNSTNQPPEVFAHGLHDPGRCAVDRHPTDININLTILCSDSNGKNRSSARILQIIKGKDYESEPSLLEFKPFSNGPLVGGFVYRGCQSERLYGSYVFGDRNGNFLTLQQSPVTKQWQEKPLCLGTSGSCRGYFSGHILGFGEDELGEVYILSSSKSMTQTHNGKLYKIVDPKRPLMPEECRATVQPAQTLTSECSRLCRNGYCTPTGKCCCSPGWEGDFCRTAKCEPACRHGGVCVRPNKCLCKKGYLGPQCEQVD
Nature of the data set: X-ray crystallography (molecular replacement). The format is binding. To be noted: co-crystallised with 10 mM SOS, pH 8.5; two SOS molecules per chain, same site as heparin.

Data set [2] concerns the target HHIP N-terminal domain (HHIP-N) (human) (UniProt Q96QV1). Nature of the data set: SEC-MALS; HHIP-N on S200 10/30 column; 10 mM HEPES pH 7.5, 150 mM NaCl; 48–192 μM injected. A general note: In gel filtration, larger molecules generally elute earlier.
Data set [3] deals with chondroitin sulphate (CS). Kind of data set: SPR. To be noted: GAGs immobilised on the chip; [HHIP-C] 0-40 µM; parent: 0.7 µM.
For data set [4], the target named is heparan sulphate (HS). Kind of data set: SPR. To be noted: GAGs immobilised on the chip; [HHIP-C] 0-40 µM; parent: 0.5 µM.
For data set [5], the target named is heparin. Kind of data set: SPR. To be noted: GAGs immobilised on the chip; [HHIP-C] 0-40 µM; parent: 0.2 µM.
Data set [6] has as its target T2, HHIP-N (Homo sapiens, UniProt Q96QV1).
T2 construct: EndoF1-deglycosylated for crystals
T2 sequence (Q96QV1 39-209): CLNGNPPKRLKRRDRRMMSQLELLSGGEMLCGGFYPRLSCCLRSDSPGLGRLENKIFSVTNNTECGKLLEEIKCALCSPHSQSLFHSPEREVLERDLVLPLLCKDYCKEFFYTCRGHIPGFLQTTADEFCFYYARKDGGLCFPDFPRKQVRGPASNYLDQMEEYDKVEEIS
Nature of the data set: isothermal titration calorimetry. The format is binding. Conditions: pH 7.5, 25 °C, 150 mM NaCl, 3% isopropanol; PEG length and linkage of the conjugate not told. (In general: ITC needs no label: the signal is the heat of the interaction.)

Data set [7] deals with the molecule itself. Kind of data set: AUC; sedimentation velocity; HHIP-C alone at 1 mg/mL; 10 mM HEPES pH 7.5, 120 mM NaCl; 20 °C; c(s) distributions.

As to `O=S(=O)(O)OC[C@H]1O[C@@](COS(=O)(=O)O)(O[C@H]2O[C@H](COS(=O)(=O)O)[C@@H](OS(=O)(=O)O)[C@H](OS(=O)(=O)O)[C@H]2OS(=O)(=O)O)[C@@H](OS(=O)(=O)O)[C@@H]1OS(=O)(=O)O` [sucrose octasulphate], the “X-ray crystallography (molecular replacement)” value in data set [1] is “We also determined the crystal structure of a HHIP-C:SOS complex”.

In data set [2], “HHIP N-terminal domain (HHIP-N) (from UniProt Q96QV1 39-209) (domain or fragment)” gave a stoichiometry N of 2.

Turning to “HHIP C-terminal domain (HHIP-C) (from UniProt Q96QV1) K277E; R328E; R350E; K569E; R610E; R613E”, the equilibrium dissociation constant (Kd) is 30 µM in data set [3], 40 µM in data set [4] and 110 µM in data set [5].

The molecule PEG-cholesterol registered a Kd in data set [6] of 23 µM.

B1: HHIP C-terminal domain (HHIP-C) (domain or fragment, human, UniProt Q96QV1 213-670, looked up)
chain: KHNCFCIQEVVSGLRQPVGALHSGDGSQRLFILEKEGYVKILTPEGEIFKEPYLDIHKLVQSGIKGGDERGLLSLAFHPNYKKNGKLYVSYTTNQERWAIGPHDHILRVVEYTVSRKNPHQVDLRTARVFLEVAELHRKHLGGQLLFGPDGFLYIILGDGMITLDDMEEMDGLSDFTGSVLRLDVDTDMCNVPYSIPRSNPHFNSTNQPPEVFAHGLHDPGRCAVDRHPTDININLTILCSDSNGKNRSSARILQIIKGKDYESEPSLLEFKPFSNGPLVGGFVYRGCQSERLYGSYVFGDRNGNFLTLQQSPVTKQWQEKPLCLGTSGSCRGYFSGHILGFGEDELGEVYILSSSKSMTQTHNGKLYKIVDPKRPLMPEECRATVQPAQTLTSECSRLCRNGYCTPTGKCCCSPGWEGDFCRTAKCEPACRHGGVCVRPNKCLCKKGYLGPQCEQVD
notes: Cloned in pHLsec; For crystallisation the protein was deglycosylated with endoglycosidase F1; also called HHIP-C WT; apo HHIP-C; source: HEK293T, transient transfection with kifunensine, purified from conditioned medium (HisTrap, SEC)
For the molecule B1, the “stoichiometry N” value in data set [7] is 2 and 3.

One may read the stoichiometry N as the number of molecules, sites or subunits per partner or assembly. A word on the Kd: it is a measure of binding affinity in units of concentration.
